Results taken from US20250250335A1 (SHENGHE CHINA BIOPHARMACEUTICAL, published 2025).
Where a chain is given by its changes, count along the chain named.

B1: Antibody 9 (antibody, V domains shown)
VH: EVKLVESGGGLVQPGGSLRLSCATSEITFIDYYMSWVRQPPGKALEWLGLIRNKANGYTTEYSESVKGRFTISRDKSQSILYLQMNTLRVEDSATYYCARDPGINWYFDVWGAGTTVTVSS
VL: QNILSQSPTILSASPGEKVTMTCRASSSVSYMHWYQQKPGSSPKPWIYATSNLASGVPARFSGSGSGTSYSLTISRVEAEDVAIYFCQRWGYNPPTFGAGTKLELK
notes: Mouse-derived hybridoma antibody; also called mouse-derived antibody 9
B2: Antibody 10 (antibody, V domains shown)
VH: QVQLQQSGPELVRPGVSVKISCKGSGYTFTDFAMHWVRQSHSKSLEWVGIITTYGGDTNYNQKFRGKATMTVDRSSSTVFLELARLTSEDSAIYYCARNRAYRFFYAMDYWGQGTSVTVSS
VL: DIQMTQSPASLSASVGETVTITCGASENIYGALNWYQRKQGKSPHLLIYGATNLADGMSSRFSGSGSAGQYSLNISSLHPDDVATYYCQNVLFAPYTFGGGTRLEIK
notes: Mouse-derived hybridoma antibody; also called mouse-derived antibody 10
B3: Antibody 11 (antibody, V domains shown)
VH: B2 VH with M34I, K43R, R74K
VL: B2 VL with H45Q, N90S
notes: Mouse-derived hybridoma antibody; also called mouse-derived antibody 11
B4: Antibody I (antibody, human IgG1, kappa, V domains shown)
VH: EVKLVESGGGLVQPGGSLRLSCATSEFTLIDYYMSWVRQSPGKALEWLGYIRNKVNGHTTDYIASVKGRFTISRDDSKNSLYLQMNSLKTEDTATYYCVRDPGINWYFDVWGQGTLVTVSS
VL: QIVLTQSPATLSLSPGERATLSCRASSRVTYMHWYQQKPGSSPKPLISATSNLASGIPARFSGSGSGTDYTLTISSLEPEDFATYYCQQWSYNPPTFGGGTKLELKR
notes: humanized from mouse-derived antibody 2; also called humanized antibody I

Columns and labels:
[1] = molecular target: T1, human CEACAM5-his (ACRO CE5-H5226) (human, UniProt P06731 35-685); assay: ELISA on coated human CEACAM5, OD450
T1 construct: Bought protein; not shown: His tag
T1 sequence (looked up): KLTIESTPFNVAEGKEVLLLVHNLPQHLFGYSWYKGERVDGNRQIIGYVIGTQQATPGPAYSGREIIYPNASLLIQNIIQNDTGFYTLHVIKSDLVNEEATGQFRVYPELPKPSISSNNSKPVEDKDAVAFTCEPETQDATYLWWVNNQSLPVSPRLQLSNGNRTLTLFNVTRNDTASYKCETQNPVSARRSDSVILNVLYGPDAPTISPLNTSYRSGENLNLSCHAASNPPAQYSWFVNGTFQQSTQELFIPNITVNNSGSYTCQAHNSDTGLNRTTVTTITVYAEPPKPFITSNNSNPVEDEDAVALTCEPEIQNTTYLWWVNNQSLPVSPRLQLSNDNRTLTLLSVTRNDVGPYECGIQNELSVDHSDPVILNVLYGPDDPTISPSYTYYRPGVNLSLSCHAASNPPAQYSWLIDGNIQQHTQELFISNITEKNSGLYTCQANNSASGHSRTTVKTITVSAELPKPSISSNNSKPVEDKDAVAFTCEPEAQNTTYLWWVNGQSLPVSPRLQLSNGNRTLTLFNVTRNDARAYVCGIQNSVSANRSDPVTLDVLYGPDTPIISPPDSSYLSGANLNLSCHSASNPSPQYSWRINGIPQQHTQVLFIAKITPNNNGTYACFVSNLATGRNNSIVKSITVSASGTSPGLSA
Experimental: (§1) The binding activity of the antibodies to human CEACAM5, human CEACAM6, and human CEACAM6 (AB) proteins was detected by ELISA. The plate coated with proteins was incubated at 4° C. overnight, and the 96-well ELISA plate blocked with 2% PBS-BSA was added with the antibody to be detected and incubated at 37° C. for 1 h. After washing 3 times with PBS containing 0.05% Tween, the absorbance value of each well was read at wavelength 450 nm with the gradient-diluted mouse-derived candidate antibody as the primary antibody and anti-mouse-IgG-FC-HRP as the secondary antibody, and the absorbance value of each well was read at wavelength 450 nm after the TMB color development.

[2] = molecular target: T2, CEACAM5 on the surface of the tumor cells (HPAFII cells) (UniProt P06731 35-685); assay: flow cytometry on HPAFII cells (Mean-FITC); the cells carry CEACAM5 and CEACAM6, signal not divided between the two
T2 construct: whole, on cells
T2 sequence (looked up): T1 sequence (looked up)
Experimental: (§2) The antibody to be tested was taken as the initial concentration of 200 nM and diluted 5-fold with 6 gradients. The HPAFII cells (From USTC […] FOR ADVANCED STUDIES) in the incubator were taken out, and the cell suspension was transferred to a 15 mL centrifuge tube, centrifuged, and counted by resuspension in PBS. A blank control group (Blank), a negative control group (NC), an experimental group, a positive control group and the irrelevant antibody group were kept. […] The cell suspension was spread in a 96-well plate according to about 3×10⁵ cells/well. Centrifugation (1000 rpm, 5 min) was performed, followed by washing with PBS, re-centrifugation, and repeated twice to remove media residues. The supernatant was discarded, 100 μL of primary antibody solution and irrelevant antibody solution were added to the experimental group and irrelevant antibody group, respectively, and the cells were resuspended and incubated at room temperature for 1 h. The blank group, and the negative control group were incubated with an equal amount of PBS.
(§3) After 1 h, PBS was added to wash twice. After the supernatant was discarded, 100 μL of fluorescent secondary antibody dilution (Mouse-derived secondary antibody from Abcam ab6785) was added to each sample group, except for the blank group which was added with 100 μL of PBS. After incubation at room temperature and protected from light for 0.5 h, centrifugation was performed and PBS added to wash the samples twice. After the supernatant was discarded, 120 μL of PBS was added to resuspend and sequentially flow cytometry was performed to detect the mean fluorescence intensity. The concentration of the antibody was logarithmically taken as the horizontal coordinate, and the Sigmoidaldose-response (VariableSlope) method (GraphPadPrism Software, GraphPadSoftware, San Diego, California) was chosen to perform a nonlinear regression to obtain the binding activity curves of the antibody on HPAFII cells.

[3] = molecular target: T3, CEACAM6 on the surface of the tumor cells (HPAFII cells) (UniProt P40199 35-320); assay: as above
T3 construct: whole, on cells
T3 sequence (looked up): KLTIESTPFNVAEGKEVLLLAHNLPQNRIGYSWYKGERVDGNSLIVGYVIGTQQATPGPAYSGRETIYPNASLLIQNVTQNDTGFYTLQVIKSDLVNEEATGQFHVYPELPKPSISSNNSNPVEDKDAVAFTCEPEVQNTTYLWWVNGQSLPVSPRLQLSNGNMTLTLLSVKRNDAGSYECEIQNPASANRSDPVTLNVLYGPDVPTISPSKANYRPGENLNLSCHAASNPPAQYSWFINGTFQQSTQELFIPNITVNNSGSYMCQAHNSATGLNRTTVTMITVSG
Experimental: as §2, §3

Human-CEACAM6 (AB)-His = molecular target: T4, Human-CEACAM6 (AB)-His (human, UniProt P40199 145-314); assay: ELISA on coated human CEACAM6 (AB), OD450
T4 construct: Made in house, purified on a nickel column
T4 sequence (P40199 other isoform, or with tags, fused parts or gaps limits assumed): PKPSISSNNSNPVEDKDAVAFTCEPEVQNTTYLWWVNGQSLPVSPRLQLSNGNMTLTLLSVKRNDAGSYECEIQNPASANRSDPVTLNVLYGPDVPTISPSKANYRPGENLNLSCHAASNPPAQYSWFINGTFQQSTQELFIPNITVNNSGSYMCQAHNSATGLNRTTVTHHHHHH
Experimental: as §1

mouse CEACAM5 = molecular target: T5, mouse CEACAM5 (mouse, UniProt Q3UKK2 35-947, limits assumed); assay: ELISA on coated protein, OD450
T5 sequence (looked up): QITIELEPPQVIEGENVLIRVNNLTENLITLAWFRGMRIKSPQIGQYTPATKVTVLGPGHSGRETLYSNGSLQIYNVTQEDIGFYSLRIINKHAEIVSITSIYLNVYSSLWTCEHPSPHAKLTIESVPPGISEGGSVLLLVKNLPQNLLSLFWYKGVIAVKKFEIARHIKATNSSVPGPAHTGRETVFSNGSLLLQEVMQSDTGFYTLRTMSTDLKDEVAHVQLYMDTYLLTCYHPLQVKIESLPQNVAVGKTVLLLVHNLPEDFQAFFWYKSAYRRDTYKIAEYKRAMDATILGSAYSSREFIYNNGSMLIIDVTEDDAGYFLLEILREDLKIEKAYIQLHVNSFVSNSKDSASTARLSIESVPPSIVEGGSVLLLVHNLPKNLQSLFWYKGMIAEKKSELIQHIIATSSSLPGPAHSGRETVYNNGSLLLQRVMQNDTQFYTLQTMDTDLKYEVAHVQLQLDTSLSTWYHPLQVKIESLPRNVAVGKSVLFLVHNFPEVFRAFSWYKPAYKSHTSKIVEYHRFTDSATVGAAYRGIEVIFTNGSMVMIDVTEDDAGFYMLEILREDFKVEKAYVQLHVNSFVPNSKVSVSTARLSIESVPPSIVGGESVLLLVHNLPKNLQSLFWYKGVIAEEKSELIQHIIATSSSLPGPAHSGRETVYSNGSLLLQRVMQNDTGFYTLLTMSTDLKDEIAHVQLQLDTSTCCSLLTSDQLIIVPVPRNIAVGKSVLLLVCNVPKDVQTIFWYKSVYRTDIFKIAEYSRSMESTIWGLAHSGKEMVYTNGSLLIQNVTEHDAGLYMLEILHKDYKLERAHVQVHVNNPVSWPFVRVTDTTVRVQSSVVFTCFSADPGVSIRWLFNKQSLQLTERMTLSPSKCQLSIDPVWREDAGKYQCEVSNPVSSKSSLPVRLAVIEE
Experimental: The affinity of the antibodies to monkey CEACAM5, monkey CEACAM6, and mouse CEACAM5 proteins was determined by ELISA. The plates encapsulated with […] proteins were incubated at 4° C. overnight, and the antibodies to be detected were added to 96-well ELISA plates after being blocked with 2% PBS-BSA and incubated at 37° C. for 1 h. After washing 3 times with PBS containing 0.05% Tween, the absorbance value of each well was read at wavelength 450 nm with the antibody to be detected as the primary antibody and Goat anti-mouse IgG-FC-HRP as the secondary antibody, and the absorbance value of each well was read at wavelength 450 nm after the TMB color development. The specific binding to CEACAM5 and CEACAM6 of mouse and monkey was detected by Elisa method.

[4] = molecular target: T3, CEACAM6 on the surface of the tumor …; assay: flow cytometry on HPAFII cells (Mean PE); the cells carry CEACAM5 and CEACAM6, signal not divided between the two
Experimental: Centrifugation (1000 rpm, 5 min) was performed, followed by washing with PBS, re-centrifugation, and repeated twice to remove media residues. The supernatant was discarded, 100 μL of primary antibody solution and irrelevant antibody solution were added to the experimental group and irrelevant antibody group, respectively, and the cells were resuspended and incubated at room temperature for 1 h. The blank group, and the negative control group were incubated with an equal amount of PBS.
as §3, with “(Secondary” for “(Mouse-derived secondary”, “ab98596)” for “ab6785)”

EC50 (read off the curve) [1] [µg/mL] | EC50 (read off the curve) [2] [nM] | EC50 (read off the curve) [3] [nM] | EC50 (read off the curve) (Human-CEACAM6 (AB)-His) [µg/mL] | OD (mouse CEACAM5) [OD] | binding result [4] | Binder
~0.02 | ~6 | ~6 | ~0.01 | – | – | B1
~0.009 | ~7 | ~7 | – | 0.15 | – | B2
~0.01 | ~4 | ~4 | – | – | – | B3
– | – | – | – | – | binds | B4
